Results taken from paper PMC10308643, “Nesfatin-3 possesses divalent metal ion binding properties, which remain hidden in the nucleobindin-2 precursor protein” (Cell Communication and Signaling : CCS, 2023).
Where “and” joins values, the source holds several entries; their conditions need not be identical. Identical values can stand only once.

B1: nesfatin-3 from Homo sapiens (domain or fragment, UniProt P80303 190-420, looked up)
chain: EYLKTLNEEKRKEEESKFEEMKKKHENHPKVNHPGSKDQLKEVWEETDGLDPNDFDPKTFFKLHDVNSDGFLDEQELEALFTKELEKVYDPKNEEDDMVEMEEERLRMREHVMNEVDTNKDRLVTLEEFLKATEKKEFLEPDSWETLDQQQFFTEEELKEYENIIALQENELKKKADELQKQKEELQRQHDQLEAQKLEYHQVIQQMEQKKLQQGIPPSGPAGELKFEPHI
notes: also called hsNesfatin-3; apo-hsNesfatin-3; source: expressed from pQE-80L/HRV3C and purified as reported previously [16, 17]

How the values were obtained:
[1] = molecular target: nesfatin-3 from Gallus gallus (Gallus gallus); test: AUC; sedimentation velocity, c(s) analysis; 0.5, 0.75 and 1.0 mg/ml protein in 20 mM Tris pH 7.5, 150 mM NaCl, 10 mM CaCl2; 20 °C, 50 000 rpm; monomer-dimer
[2] = molecular target: nesfatin-3 from Gallus gallus (Gallus gallus); test: AUC; sedimentation velocity, c(s) analysis; 0.5, 0.75 and 1.0 mg/ml protein in 20 mM Tris pH 7.5, 150 mM NaCl, 10 mM MgCl2; 20 °C, 50 000 rpm; monomer-dimer
[3] = molecular target: nesfatin-3 from Gallus gallus (Gallus gallus); test: AUC; sedimentation velocity, c(s) analysis; 0.5, 0.75 and 1.0 mg/ml protein in 20 mM Tris pH 7.5, 150 mM NaCl, 300 µM ZnCl2; 20 °C, 50 000 rpm; monomer-dimer
[4] = molecular target: nesfatin-3 from Gallus gallus (Gallus gallus); test: AUC; sedimentation velocity, c(s) analysis; 0.5, 0.75 and 1.0 mg/ml protein in 20 mM Tris pH 7.5, 150 mM NaCl, 5 mM EDTA (apo form); 20 °C, 50 000 rpm; monomer-dimer
[5] = molecular target: nesfatin-3 from Gallus gallus (Gallus gallus); test: AUC; sedimentation velocity, c(s) analysis; 0.5, 0.75 and 1.0 mg/ml protein in 20 mM Tris pH 7.5, 150 mM NaCl, 100 µM ZnCl2; 20 °C, 50 000 rpm; monomer-dimer(-tetramer)
[6] = molecular target: nesfatin-3 from Gallus gallus (Gallus gallus); test: AUC; sedimentation velocity, c(s) analysis; 0.5, 0.75 and 1.0 mg/ml protein in 20 mM Tris pH 7.5, 150 mM NaCl, 800 µM ZnCl2; 20 °C, 50 000 rpm; monomer-dimer(-tetramer)
[7] = molecular target: the molecule itself; test: AUC; sedimentation velocity, c(s) analysis; 0.5, 0.75 and 1.0 mg/ml protein in 20 mM Tris pH 7.5, 150 mM NaCl, 10 mM MgCl2; 20 °C, 50 000 rpm; monomer-dimer
[8] = molecular target: the molecule itself; test: AUC; sedimentation velocity, c(s) analysis; 0.5, 0.75 and 1.0 mg/ml protein in 20 mM Tris pH 7.5, 150 mM NaCl, 5 mM EDTA (apo form); 20 °C, 50 000 rpm; monomer-dimer
[9] = molecular target: the molecule itself; test: as above; remark: listed apart in the source

| Molecule | percent dimer [1] | dimer-to-monomer ratio (dimer:monomer) [2] | percent dimer [2] | percent dimer [3] | percent dimer [4] | stoichiometry N [4] | percent dimer [5] | percent dimer [6] | percent dimer [7] | stoichiometry N [8] | percent dimer [9] |
| --- | --- | --- | --- | --- | --- | --- | --- | --- | --- | --- | --- |
| nesfatin-3 from Gallus gallus (domain or fragment) | 76% and 77% and 74% | 9 | 100% and 83% and 92% | 59% and 64% and 70% | 75% and 76% and 77% | 2 | 74% and 80% and 79% | 90% and 91% and 88% |  |  |  |
| B1 |  |  |  |  |  |  |  |  | 100% | 2 | 100% |
